According to paper PMC10303918:

Molecular target: recombinant human CA125 (rhCA125) (human) (UniProt Q8WXI7)

recombinant human mesothelin Fc fusion (hrMSLN-Fc) (from UniProt Q13421 296-598)
adhesion of GFP-MSLN transfected HEK 293 T cells on an OVCAR-3 (MSLN+, MUC16+) monolayer in the presence of 1 uM Nb A1; percent of adhesion blocked: > 90%
